Test in all cases: pull-down
For test [1], the target named is T1, 6xHis-tagged SPN-2 (full-length) (C. elegans, UniProt Q20898 1-761).
T1 sequence: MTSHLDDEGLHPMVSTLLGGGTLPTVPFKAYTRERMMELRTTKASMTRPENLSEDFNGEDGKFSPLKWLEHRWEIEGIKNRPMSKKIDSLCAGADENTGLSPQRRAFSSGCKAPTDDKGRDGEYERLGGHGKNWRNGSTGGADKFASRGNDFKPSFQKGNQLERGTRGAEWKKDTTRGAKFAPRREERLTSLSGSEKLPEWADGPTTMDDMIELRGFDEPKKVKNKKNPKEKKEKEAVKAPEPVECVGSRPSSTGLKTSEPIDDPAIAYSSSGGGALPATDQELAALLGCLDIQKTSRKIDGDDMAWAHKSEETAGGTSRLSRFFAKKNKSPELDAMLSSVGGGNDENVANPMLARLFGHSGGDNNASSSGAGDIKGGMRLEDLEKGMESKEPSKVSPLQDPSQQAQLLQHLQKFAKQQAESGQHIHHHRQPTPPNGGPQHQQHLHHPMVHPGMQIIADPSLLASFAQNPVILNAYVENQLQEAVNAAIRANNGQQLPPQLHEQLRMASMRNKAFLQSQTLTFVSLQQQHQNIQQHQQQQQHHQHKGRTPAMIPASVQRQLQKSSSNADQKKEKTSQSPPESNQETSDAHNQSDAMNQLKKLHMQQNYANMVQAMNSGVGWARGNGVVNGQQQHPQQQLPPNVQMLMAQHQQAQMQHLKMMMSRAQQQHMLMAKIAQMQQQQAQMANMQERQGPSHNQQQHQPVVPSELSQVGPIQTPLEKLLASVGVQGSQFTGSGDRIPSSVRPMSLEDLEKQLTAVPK

Test [2] has as its target T1, 6xHis-tagged SPN-2 (full-length). This is another data set of the same source.
Test [3] has as its target T2, 6xHis-tagged SPN-2N (SPN-2 N-terminal fragment, 1-399 aa) (C. elegans, UniProt Q20898 1-399).
T2 sequence: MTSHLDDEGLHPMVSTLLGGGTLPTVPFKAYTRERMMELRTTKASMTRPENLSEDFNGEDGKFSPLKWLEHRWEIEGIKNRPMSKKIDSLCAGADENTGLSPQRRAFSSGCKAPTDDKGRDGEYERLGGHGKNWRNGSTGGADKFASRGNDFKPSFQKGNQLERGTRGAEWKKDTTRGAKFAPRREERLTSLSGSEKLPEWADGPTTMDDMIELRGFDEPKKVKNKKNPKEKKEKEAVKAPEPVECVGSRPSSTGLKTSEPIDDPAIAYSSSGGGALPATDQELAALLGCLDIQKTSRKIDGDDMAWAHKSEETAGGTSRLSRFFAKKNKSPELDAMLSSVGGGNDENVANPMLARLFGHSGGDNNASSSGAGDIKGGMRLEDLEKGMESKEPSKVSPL

B1: GST–IFE-1 (natural protein)
chain: MTETEQTTAPIYPLKRNWTWWYLNDERNKSWEDRLKKVYTFNTVSEFWALYDAIRPPSGLNALCDYNVFRDDIQPMWEVPENSNGGRWLIVIDKGKTPEMVDAIWLEILMALVGEQFGKDMESICGLVCNVRGKGSKISVWTKDCNDDETNMRIGVVLKEKLMAASKDHSKPLFDVIRYEDHESCQKKTSSVVKAKLSLHSSDAPVAEKSAV
As usually defined, the Kd is the constant that tells how readily two partners part at equilibrium. The molecule B1 came in with a Kd in test [1] of 33 nM.

B2: GST–IFE-5 (natural protein)
chain: MTELTTPIYPLQRNWSWWFLNDDRNASWQDRLKKVYTFNTVPEFWAFYEAILPPSGLNDLCDYNVFRDDIQPKWEAPENWDGGRWLIIINKGKTPEVLDAVWLEILLALIGEQFGKDMESICGLVCNVRGQGSKISVWTKNCNDDDTNMRIGVVLKEKLMAAASKAHSKPLFDVIHYQTHRNCVKKTTSALKYKFSLKSIV
As for B2, the binding result in test [2] and in test [3] was “binds” throughout.

B3: GST–IFE-2 (natural protein)
chain: MSEEPVAAPGTISHPVYKLKRNWTWWYLNDERNKSWEERLKNVKTFSSVGEFWALHDSIKPPSGLNPPSDYNVFRDGIEPMWEVPQNQNGGRWLITIEKGRTPEIMDTIWTEILMAMIGEQFSDDIESLCGIVCNVRGKGSKISVWTTNSADDGANLRIGGVLKQVLNNASMIHQRPLYDVLRYEDHESCQKKTSSGVKAKHAIYAVEPREEKAPVPVSTETPATPAT
For the molecule B3, the binding result in test [2] and in test [3] was “binds” throughout.

The record behind these values is paper PMC2762092 (The Journal of Cell Biology, 2009).
